B1: OR4K15 (parent)
chain: GUUAACGGUCAUAGGCCAUGGAAACUAGGAGCACCAUUUCGCUGCCAGUGAAGAAAUGAACAAAGAAAAUCUGGGCCAGGCAGGCAUCAAAAGAAAUAGUCUUGCGCUCAACCAGAAAGUCUGUAAUCAUUUUAAGGGUA

Variants of B1 are the subject of the data set. The data set is described as follows: self-cleavage, relative activity (ratio to wild type); higher = more cleavage; in vitro, sequencing; the parent is a self-cleaving ribozyme.
In the case of GUUAACGGUCAUAGGCCAUGGAAACUAGGAGCACCAUUUCGCUGCCAGUGAAGAAAUGAACAAAGAAAAUCUGGGCCAGGCAGGCAUCAAAAGAAGUAGUCUUGCGCCCAACCAGAAAGUCUGUAAUCAUUUUAAGGGUA, the self-cleavage came out at 0.01.

Take GUUAACGGUCAUAGGCCAUGGAAACUAGGAGCACCAGUUCGCUGCCAGUGAAGAAAUGAACGAAGAAAAUCUGGGCCAGGCAGGCAUCAAAAGAAAUAGUCUUGCGCUCAACCAGAAAGUCUGUAAUCAUUUUAAGGGUA: the self-cleavage worked out at 1.44.

In the case of GUUAACGGUCGUAGGCCAUGGGAACUAGGAGCACCAUUUCGCUGCCAGUGAAGAAAUGAACAAAGAAAAUCUGGGCCAGGCAGGCAUCAAAAGAAAUAGUCUUGCGCUCAACCAGAAAGUCUGUAAUCAUUUUAAGGGUA, the self-cleavage was 1.04.

With GUUAACGGUCAUAGGCCAUGGAAACUAGGAGCACCAUUUCGCUGCCAGUGAAGAAAUGAACAAAGAAAACCAGGGCCAGGCAGGCAUCAAAAGAAAUAGUCUUGCGCUCAACCAGAAAGUCUGUAAUCAUUUUAAGGGUA, the self-cleavage worked out at 0.21.

Consider GUUAACUGUCAUAGGCCAUGGAAACUAGGAGCACCAUUUCGCUGCCAGUGAAGAAAUGAACAAAGAAAAUCUGGGCCAGGCAGGCAUCAAAGGAAAUAGUCUUGCGCUCAACCAGAAAGUCUGUAAUCAUUUUAAGGGUA, for which the self-cleavage was determined as 1.66.

GUUAACGGUCAUAGGCCAUGGAAACUAGGAGCACCAUUUCGCUGCCAGUGAAGAAAUGAGCAAAGAAAAUCUGGGCCAGGCAGGCAUCAAAAGAAAUAGUCUUGCGCUCAACCAGAAAGUCAGUAAUCAUUUUAAGGGUA: the self-cleavage was 1.41.

As for GUUAACGGUCAUAGGCCAUGGAAACUAGGAGCACCAUUUCGCUGCCAGUGAAGAAAUGAACAAAGAAAAUCUGGGCCAGGCAGGCAUCAAAAGAAAUAGUCGUGCGCUCAACCAGAGAGUCUGUAAUCAUUUUAAGGGUA, the self-cleavage is 0.37.

In the case of GUUAACGGUCAUAGGCCAUGGAAACUAGGAGCACCAUUUCGCUGCCAGUGAAGAAAUGAACAAAGAAAAUCUGGGCCAGGCAGGCACCAAAAGAAAUAGUCUUGCGCUCAACCAGAAGGUCUGUAAUCAUUUUAAGGGUA, the self-cleavage turned out to be 0.75.

For the variant GUUAACGGUCAUAGGCUAUGGAAACUAGGAGCACCAUUUCGCUGCCAGUGAAGAAAUGAACAAGGAAAAUCUGGGCCAGGCAGGCAUCAAAAGAAAUAGUCUUGCGCUCAACCAGAAAGUCUGUAAUCAUUUUAAGGGUA, the self-cleavage is 0.65.

As for GUUAACGGUCAUAGGCCAUGGAAACUAGGAGCACCAUUUCGCUGCCAGUGAAGAAAUGAACAAAGAAAAUCUGGGCCAGGCAGGCACCAAAAGAAUUAGUCUUGCGCUCAACCAGAAAGUCUGUAAUCAUUUUAAGGGUA, the self-cleavage is 1.48.

As to GUUAACGGUCAUAGGCCAUGGAAACUAGGAGCACCAUUUCGCUGCCAGUGAAGAAAUGAACAAAGUAAAUCUGGGCCAGGCAGGCAUCCAAAGAAAUAGUCUUGCGCUCAACCAGAAAGUCUGUAAUCAUUUUAAGGGUA, the self-cleavage is 0.99.

As for GUUAACGGUCAUAGGCCAUGGAAACUAGGAGCACCAUUUCGCUGCCAGUGAAGAAAUGAACAAAGAAAAUCUGGGCCAGGCAGGCAUCAAAAGAGAUAGUCUAGCGCUCAACCAGAAAGUCUGUAAUCAUUUUAAGGGUA, the self-cleavage was found to be 1.55.

For the variant GUUAACGGUCAUAGGCCAUGGAAACUAGGAGCACCAUUUCGCUGCCAGUGAAGAAAUGAACCAAGAAAGUCUGGGCCAGGCAGGCAUCAAAAGAAAUAGUCUUGCGCUCAACCAGAAAGUCUGUAAUCAUUUUAAGGGUA, the self-cleavage came to 0.62.

Take GUUAACGGUCAUAGGCCAUGGAAACUAGGAGCACCAUUACGCUGCCAGUGAAGAAAUGAACAAAGAGAAUCUGGGCCAGGCAGGCAUCAAAAGAAAUAGUCUUGCGCUCAACCAGAAAGUCUGUAAUCAUUUUAAGGGUA: the self-cleavage is 1.5.

On to GUUAACGGUCAUAGGCCAUGGAAACUAGGAGCACCAUUUCGCUGCCAGUGAAGAAACGAACAAAGAAAAUCUGGGCCAGGCAGGCAUCAAAAGAAAUAGUCCUGCGCUCAACCAGAAAGUCUGUAAUCAUUUUAAGGGUA, for which the self-cleavage was 1.38.

As for GUUAACGGUCAUAGGCCAUGGAAACUAGGAGCACCAUUUCGUUGCCAGUGAAGAAAUGAACAAAGAAAAUCUGGGCCAGGCAGGCAUCAAAAGAAAUAGUCUUGUGCUCAACCAGAAAGUCUGUAAUCAUUUUAAGGGUA, the self-cleavage was found to be 0.05.

Consider GUUAACGGUCAUAGGCCAUGGAAACUAGGAGCACCAUUUCGCUGCCAGUGAAGAAACGAACAAAGAAAAUCUGGGCCAGGCAGGCAUCAAAAGAAAUAGUCUUGCGCUCAACCAGAAGGUCUGUAAUCAUUUUAAGGGUA, for which the self-cleavage was determined as 0.43.

Turning to GUUAACGGUCAUAGGCCAUGGAAACUAGGAGCACCAUUUCGCUGCCAGUGAAGAAAUGAACAAAGAGAAUCUGGGCCAGGCAGGCAUCAAAAGAAAUAGUCUUGCGCUCAACCAGAAAGCCUGUAAUCAUUUUAAGGGUA, the self-cleavage came out at 0.83.

Take GUUAACGGUCAUAGGCCAUGGAAACUAGGGGCACCAUUUCGCUGCCAGUGAAGGAAUGAACAAAGAAAAUCUGGGCCAGGCAGGCAUCAAAAGAAAUAGUCUUGCGCUCAACCAGAAAGUCUGUAAUCAUUUUAAGGGUA: the self-cleavage was found to be 1.21.

On to GUUAGCGGUCAUAGGCCAUGGAAACUAGGAGCACCAUUUCGCUGCCAGUGAAGAAAUGAACAAAGAAAAUCUGGGCCAGGCAGGCAUCAAAAGAAGUAGUCUUGCGCUCAACCAGAAAGUCUGUAAUCAUUUUAAGGGUA, for which the self-cleavage stood at 1.21.

Consider GUUAACGGUCAUAGGCCAUGGCAACUAGGAGCACCAUUUCGCUGCCAGUGAAGAAAUGAACAAAGAAAAUCUGGGCCAGGCAGGCAUCAAAAGAAAUAGUCUUGCGCUCAACCAGAAAGUCUGUAAUCAUGUUAAGGGUA, for which the self-cleavage stood at 0.94.

With GAUAACGGUCAUAGGCCAUGGAUACUAGGAGCACCAUUUCGCUGCCAGUGAAGAAAUGAACAAAGAAAAUCUGGGCCAGGCAGGCAUCAAAAGAAAUAGUCUUGCGCUCAACCAGAAAGUCUGUAAUCAUUUUAAGGGUA, the self-cleavage turned out to be 1.24.

As to GUUAACGGUCAUAGGCCAUGGAAACUAGGAGCACCAUUUCGCUGCCAGUGAAGAAAUGAACAAAGAAAAUCUGGGCCAGGCAUGCAUUAAAAGAAAUAGUCUUGCGCUCAACCAGAAAGUCUGUAAUCAUUUUAAGGGUA, the self-cleavage was 1.11.

As to GUUAACGGUCAUAGGCCAUGGUAACUAGGAGCACCAUUUCGCUGCCAGUGAAGAAAUGAACAAAGAAAAUCUGGGCCAGGCAGGCAUCAAAAGAAAUAGUCUUGCGCUCAACCAGAAAGCCUGUAAUCAUUUUAAGGGUA, the self-cleavage was determined as 0.48.

GUUAAUGGUCAUAGGCCAUGGAAACUGGGAGCACCAUUUCGCUGCCAGUGAAGAAAUGAACAAAGAAAAUCUGGGCCAGGCAGGCAUCAAAAGAAAUAGUCUUGCGCUCAACCAGAAAGUCUGUAAUCAUUUUAAGGGUA: the self-cleavage came out at 2.16.

In the case of GUUAACGGUCAUAGGCCAUGGAAACUAGGAGCACCAUUUCGCUGCCAGUGAAGAAAUGAACAAAGAAAAUCUGGGCCAGGCAGACAUCAAAUGAAAUAGUCUUGCGCUCAACCAGAAAGUCUGUAAUCAUUUUAAGGGUA, the self-cleavage is 2.15.

Turning to GUUAACGGUCAUAGGCCAUGGAAACUAGGAGCACCAUUUCGCUGCCGGUGGAGAAAUGAACAAAGAAAAUCUGGGCCAGGCAGGCAUCAAAAGAAAUAGUCUUGCGCUCAACCAGAAAGUCUGUAAUCAUUUUAAGGGUA, the self-cleavage came to 0.9.

Take GUUAACGGUCAUAGGCCAUGGAAACUAGGAGCACCACUUCGCUGCCAGUGAAGAAAUGAACAAAGAAAGUCUGGGCCAGGCAGGCAUCAAAAGAAAUAGUCUUGCGCUCAACCAGAAAGUCUGUAAUCAUUUUAAGGGUA: the self-cleavage came to 1.17.

Turning to GUUAACGGUCAUAGGCCAUGGAAACUAGGAGCACCAUUUCGCUGCCAGUGAAGAAAUGAACAGAGAAAAUCUGGGCCAGGCAGGCAACAAAAGAAAUAGUCUUGCGCUCAACCAGAAAGUCUGUAAUCAUUUUAAGGGUA, the self-cleavage was 2.02.

As to GUUAACGGACAUAGGCCAUGGAAACUAGGAGCACCAUUUCGCUGCCAGUGAAGAAAUGAACAAAGAAAAUCUGGGCCAGGCAGGCAUCAAAAGAAAUAGUCUUGCGCUCAACCAGAAAGUCUGUAAUCACUUUAAGGGUA, the self-cleavage amounted to 1.33.

On to GUUAACGGUCAUAGGCCAUGGAAACUAGGAGCACCAUUUCGCUGCCAGUGAAGAAAUGAACAAAGAAAAUCUGGGCCAGGCAGGCAUCAAAAGAAAUAGUCUUGCGCUCUACCAGAAAGUCUGUAAUCAUUUUAAGAGUA, for which the self-cleavage was determined as 1.55.

For GUUGACGGUCAUAGGCCAUGGAAACUAGGAGCACCAUUUCGCUGCCAGUGAAGAAAUGAACAAAGAAAAUCUGGGCCAGGCAGGCAUCAAAAGAAAUAGUCUUGCGCUCAACCAGAAAGUCUGUAAUCAUUUUGAGGGUA, the self-cleavage amounted to 0.91.

Turning to GUCAACGGUCAUAGGCCAUGGAAACUAGGAGCACCAUUUCGCUGCCAGUGAAGAAAUGAACAAAGAAAAUCUGGGCCUGGCAGGCAUCAAAAGAAAUAGUCUUGCGCUCAACCAGAAAGUCUGUAAUCAUUUUAAGGGUA, the self-cleavage came out at 0.51.

As for GUUAACGGUCAUAGGCCAUGGAAACUAGGAGCACCAUUUCGCUGCCAGCGAAGAAAUGAACAAAGAAAAUCUGGGCCAGGCAGGCAUCAAAAGAAAUAGUCUUGCGCUCAGCCAGAAAGUCUGUAAUCAUUUUAAGGGUA, the self-cleavage was determined as 0.02.

Regarding GUUAACGGUCAUAGGCCAUGGAAACUAGGAGCACCAUUUCGCUGCCAGUGAAGAAAUGAACAAAGAAAUUCUGGGCCAGGCAGGCAUCAAAAGAAAUAGUCUUGCGCUCAACCAGAAAGUCUGUAAUCUUUUUAAGGGUA, the self-cleavage is 1.23.

For the variant GUUAACGGUCAUAGGCCAUGGAAACUAGGAGCACCAUUUCGCUGCCAGUGAAGAAAUGAACAAAGAAAAUCUGGGCCAGGCAGGCGUCGAAAGAAAUAGUCUUGCGCUCAACCAGAAAGUCUGUAAUCAUUUUAAGGGUA, the self-cleavage stood at 1.42.

As for GUUAACGGUCAUAGGCCAUGGAAACUAGGAGCACCAUUUCGCUGCCAGUGAAGAAAUGAACAAAGAAAAUCUGGGCCAGGCAGGCAUCAAAAGAAAUAGCCAUGCGCUCAACCAGAAAGUCUGUAAUCAUUUUAAGGGUA, the self-cleavage was 2.36.

Consider GUUAACGGUCAUAGGCCAUGGAAACUAGGAGCACCAUUUCGCUGCCAGUGAGGAAAUGAACAAAGAAAAUCUGGGCCGGGCAGGCAUCAAAAGAAAUAGUCUUGCGCUCAACCAGAAAGUCUGUAAUCAUUUUAAGGGUA, for which the self-cleavage worked out at 0.28.

Turning to GUUAACGGUCAUAGGCCAUGGAAAUUAGGAGCACCAUUUCGCUGCCAGUGAAGAAAUGAACAAAGAAAAUCUGGGCCAGGCAGGCAUCAAAAGAAAUAGUCUUGCGCUCAACCAGAAAGUCUGUAAUCAUUUUAGGGGUA, the self-cleavage was 1.44.

For the variant GUUAAUGGUCAUAGGCCAUGGAAACUAGGAGCACCAUUUCGCUGCCAGUGAAGAAAUGAACAAAGAAAAUCUGGGCCAGGCAGGCAUCAAAAGAAAUAGUCUUGCGCUCAACCAGAAAGUCUGUAAUCAUUUUAGGGGUA, the self-cleavage is 2.17.

GUUAACGGUCAUAGGCUAUGGAAACUAGGAGCACCAUUUCGCUGCCAGUGAAGAAAUGAACAAAGAAAAUCUGGGCCAGGCAGGCAACAAAAGAAAUAGUCUUGCGCUCAACCAGAAAGUCUGUAAUCAUUUUAAGGGUA: the self-cleavage was 1.37.
